# Key:
# [1] = target: T1, cICDH (cytosolic NADP-ICDH, At1g65930) (Arabidopsis thaliana, UniProt Q9SRZ6); assay: residual activity after preincubation; LC-MS/MS of glutathionylated peptide; biotin switch; assay type: biochemical; conditions: 15 min at 25 °C before assay; covalent, S-glutathionylation of Cys363 and S-nitrosylation
# T1 construct: ~90 kDa non-covalent dimer
# [2] = target: T2, cICDH (cytosolic NADP-ICDH, At1g65930) (Arabidopsis thaliana, UniProt Q9SRZ6, C363S); assay: residual activity after preincubation, NADPH at […] nm; assay type: biochemical; conditions: 1 mM GSNO preincubation, 25 °C; covalent
# T2 construct: ~90 kDa non-covalent dimer
# [3] = substrate: NC(=O)c1ccc[n+]([C@@H]2O[C@H](COP(=O)(O)OP(=O)(O)OC[C@H]3O[C@@H](n4cnc5c(N)ncnc54)[C@H](OP(=O)(O)O)[C@@H]3O)[C@@H](O)[C@H]2O)c1; assay: purified protein; assay type: biochemical, Arabidopsis thaliana; conditions: NADP+ varied 0-1 mM, DL-isocitric acid as co-substrate, 5 mM MgCl2, 100 mM potassium phosphate pH 7.5, 25 °C
# [4] = substrate: O=C(O)CC(C(=O)O)C(O)C(=O)O; assay: purified protein; assay type: biochemical, Arabidopsis thaliana; conditions: 250 µM NADP+, 5 mM MgCl2, 100 mM potassium phosphate pH 7.5, 25 °C, DL-isocitric acid varied 0-5 mM
# [5] = target: the molecule itself; assay: SEC; Superose 12 column, ~10 ug His-ICDH, 50 mM Tris pH 7.5, 5 mM MgCl2, 150 mM NaCl; standards aldolase 158 kDa, conalbumin 75 kDa, ovalbumin 43 kDa; eluted at ~90 kDa against a 48.3 kDa monomer
# [6] = Table 1 labels the mutant C297S, text and methods say C363S
molecule,measurement,setting,value
N[C@@H](CCC(=O)N[C@@H](CSN=O)C(=O)NCC(=O)O)C(=O)O [GSNO],activity at increasing GSNO,[1],both increasing concentrations of GSNO and GSSG progressively inhibited the cICDH activity
same,activity after 1 mM GSNO,[2],cICDH C363S was found to be less affected by GSNO treatment than the wild-type enzyme
"cytosolic NADP-dependent isocitrate dehydrogenase (cICDH), recombinant His-tagged (enzyme, Arabidopsis thaliana, UniProt Q9SRZ6 1-410, looked up, cytosolic NADP-dependent isocitrate dehydrogenase, Arabidopsis thaliana, At1g65930; predicted mass 48.3 kDa including the N-terminal His-tag; also called His-ICDH; His-cICDH; source: E. coli BL21, purified (Ni2+-Sepharose); not shown: His-tag, N-terminal, kept) MAFEKIKVANPIVEMDGDEMTRVIWKSIKDKLITPFVELDIKYFDLGLPHRDATDDKVTIESAEATKKYNVAIKCATITPDEGRVTEFGLKQMWRSPNGTIRNILNGTVFREPIICKNVPKLVPGWTKPICIGRHAFGDQYRATDAVIKGPGKLTMTFEGKDGKTETEVFTFTGEGGVAMAMYNTDESIRAFADASMNTAYEKKWPLYLSTKNTILKKYDGRFKDIFQEVYEASWKSKYDAAGIWYEHRLIDDMVAYALKSEGGYVWACKNYDGDVQSDFLAQGFGSLGLMTSVLVCPDGKTIEAEAAHGTVTRHFRVHQKGGETSTNSIASIFAWTRGLAHRAKLDDNAKLLDFTEKLEAACVGTVESGKMTKDLALIIHGSKLSRDTYLNTEEFIDAVAAELKERLNA",Km,[3],28 µM
same,kcat,[3],5.81 s⁻¹
same,Km,[4],99 µM
same,kcat,[4],4.93 s⁻¹
same,kcat/Km,[4],49700 M⁻¹ s⁻¹
same,stoichiometry N,[5],2
"cICDH (cytosolic NADP-ICDH, At1g65930) (Arabidopsis thaliana; C363S) (protein, ~90 kDa non-covalent dimer) MAFEKIKVANPIVEMDGDEMTRVIWKSIKDKLITPFVELDIKYFDLGLPHRDATDDKVTIESAEATKKYNVAIKCATITPDEGRVTEFGLKQMWRSPNGTIRNILNGTVFREPIICKNVPKLVPGWTKPICIGRHAFGDQYRATDAVIKGPGKLTMTFEGKDGKTETEVFTFTGEGGVAMAMYNTDESIRAFADASMNTAYEKKWPLYLSTKNTILKKYDGRFKDIFQEVYEASWKSKYDAAGIWYEHRLIDDMVAYALKSEGGYVWACKNYDGDVQSDFLAQGFGSLGLMTSVLVCPDGKTIEAEAAHGTVTRHFRVHQKGGETSTNSIASIFAWTRGLAHRAKLDDNAKLLDFTEKLEAASVGTVESGKMTKDLALIIHGSKLSRDTYLNTEEFIDAVAAELKERLNA",Km,[4]; [6],95 µM
same,kcat,[4]; [6],4.31 s⁻¹

# — article PMC6356969, “Cytosolic Isocitrate Dehydrogenase from Arabidopsis thaliana Is Regulated by Glutathionylation” (Antioxidants, 2019)
